Reference: paper PMC8910529

Tests used:
[1] = target: His598 (UniProt position 598, TYCGCHEAIMA); test: kinetics; settings: 20 mM PBS; Ni-reconstituted protein (Nid site occupied, labile Nip removed with phenanthroline), turning over superoxide
[2] = target: His598 (UniProt position 598, TSCGCHEAIMA); test: kinetics; settings: 20 mM PBS; Ni-reconstituted protein (Nid site occupied, labile Nip removed with phenanthroline), turning over superoxide

Question: For “Acetyl-coenzyme A synthase, truncated C-terminal fragment ACS-alpha15, YGP-F598H variant (Moorella thermoacetica; S594Y;Y594_C595insGP;F598H)”, which pKa [1] is on record?
Answer: 5.87

Question: How did the pKa [2] turn out when “Acetyl-coenzyme A synthase, truncated C-terminal fragment ACS-alpha15, EFG-F598H variant (Moorella thermoacetica; F598H;S594_C595insEFG)” was run?
Answer: 6.09
